The assay has as its system HEK293FT cells transfected with TF library. As to the kind of experiment: Screening of TF condensates based on fluorescent puncta. The class given is cell-based. The note with it: Figure 1B numerical data; TF library screen, one value per transcriptional factor. The method in brief:
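HEK293FT cells were reverse-transfected with Flag- or GAL4-tagged TF plasmids (1.6 μg/ml, PEI). After 60 h, cells were cultured 12 h with or without glucose, then fixed and immunostained with anti-Flag or anti-GAL4 and Alexa 488 secondaries. Fluorescent puncta were imaged over fifty random fields per well by high-content imaging.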

B1: GMNN (protein, UniProt O75496 1-209, looked up)
Geminin: MNPSMKQKQEEIKENIKNSSVPRRTLKMIQPSASGSLVGRENELSAGLSKRKHRNDHLTSTTSSPGVIVPESSENKNLGGVTQESFDLMIKENPSSQYWKEVAEKRRKALYEALKENEKLHKEIEQKDNEIARLKKENKELAEVAEHVQYMAELIERLNGEPLDNFESLDNQEFDSEEETVEDSLVEDSEIGTCAEGTVSSSTDAKPCI
Turning to B1, the “Z score of condensed fraction” value was 0.2471.

B2: GLIS3 (protein, UniProt Q8NEA6 1-775, looked up)
Zinc finger protein GLIS3: MMVQRLGLISPPASQVSTACNQISPSLQRAMNAANLNIPPSDTRSLISRESLASTTLSLTESQSASSMKQEWSQGYRALPSLSNHGSQNGLDLGDLLSLPPGTSMSSNSVSNSLPSYLFGTESSHSPYPSPRHSSTRSHSARSKKRALSLSPLSDGIGIDFNTIIRTSPTSLVAYINGSRASPANLSPQPEVYGHFLGVRGSCIPQPRPVPGSQKGVLVAPGGLALPAYGEDGALEHERMQQLEHGGLQPGLVNHMVVQHGLPGPDSQSAGLFKTERLEEFPGSTVDLPPAPPLPPLPPPPGPPPPYHAHAHLHHPELGPHAQQLALPQATLDDDGEMDGIGGKHCCRWIDCSALYDQQEELVRHIEKVHIDQRKGEDFTCFWAGCPRRYKPFNARYKLLIHMRVHSGEKPNKCTFEGCEKAFSRLENLKIHLRSHTGEKPYLCQHPGCQKAFSNSSDRAKHQRTHLDTKPYACQIPGCTKRYTDPSSLRKHVKAHSSKEQQARKKLRSSTELHPDLLTDCLTVQSLQPATSPRDAAAEGTVGRSPGPGPDLYSAPIFSSNYSSRSGTAAGAVPPPHPVSHPSPGHNVQGSPHNPSSQLPPLTAVDAGAERFAPSAPSPHHISPRRVPAPSSILQRTQPPYTQQPSGSHLKSYQPETNSSFQPNGIHVHGFYGQLQKFCPPHYPDSQRIVPPVSSCSVVPSFEDCLVPTSMGQASFDVFHRAFSTHSGITVYDLPSSSSSLFGESLRSGAEDATFLQISTVDRCPSQLSSVYTEG
With B2, the “Z score of condensed fraction” value stood at 0.8153.

B3: AIRE (protein, UniProt O43918 1-545, looked up)
Autoimmune regulator: MATDAALRRLLRLHRTEIAVAVDSAFPLLHALADHDVVPEDKFQETLHLKEKEGCPQAFHALLSWLLTQDSTAILDFWRVLFKDYNLERYGRLQPILDSFPKDVDLSQPRKGRKPPAVPKALVPPPRLPTKRKASEEARAAAPAALTPRGTASPGSQLKAKPPKKPESSAEQQRLPLGNGIQTMSASVQRAVAMSSGDVPGARGAVEGILIQQVFESGGSKKCIQVGGEFYTPSKFEDSGSGKNKARSSSGPKPLVRAKGAQGAAPGGGEARLGQQGSVPAPLALPSDPQLHQKNEDECAVCRDGGELICCDGCPRAFHLACLSPPLREIPSGTWRCSSCLQATVQEVQPRAEEPRPQEPPVETPLPPGLRSAGEEVRGPPGEPLAGMDTTLVYKHLPAPPSAAPLPGLDSSALHPLLCVGPEGQQNLAPGARCGVCGDGTDVLRCTHCAAAFHWRCHFPAGTSRPGTGLRCRSCSGDVTPAPVEGVLAPSPARLAPGPAKDDTASHEPALHRDDLESLLSEHTFDGILQWAIQSMARPAAPFPS
Take B3: the “Z score of condensed fraction” value came out at 1.2609.

B4: GLI4 (protein, UniProt P10075 1-376, looked up)
Zinc finger protein GLI4: MAALGDIQESPSVPSPVSLSSPGTPGTQHHEPQLHLHGHQHGSPGSSPKVLSQPSDLDLQDVEEVEIGRDTFWPDSEPKPEQAPRSPGSQAPDEGAGGALRSLLRSLPRRARCSAGFGPESSAERPAGQPPGAVPCAQPRGAWRVTLVQQAAAGPEGAPERAAELGVNFGRSRQGSARGAKPHRCEACGKSFKYNSLLLKHQRIHTGEKPYACHECGKRFRGWSGFIQHHRIHTGEKPYECGQCGRAFSHSSHFTQHLRIHNGEKPYKCGECGQAFSQSSNLVRHQRLHTGEKPYACSQCGKAFIWSSVLIEHQRIHTGEKPYECSDCGKAFRGRSHFFRHLRTHTGEKPFACGACGKAFGQSSQLIQHQRVHYRE
On to B4, for which the “Z score of condensed fraction” value came to 0.3449.

B5: GCN512 (protein, UniProt Q92830 2-837, looked up)
Histone acetyltransferase …: AEPSQAPTPAPAAQPRPLQSPAPAPTPTPAPSPASAPIPTPTPAPAPAPAAAPAGSTGTGGPGVGSGGAGSGGDPARPGLSQQQRASQRKAQVRGLPRAKKLEKLGVFSACKANETCKCNGWKNPKPPTAPRMDLQQPAANLSELCRSCEHPLADHVSHLENVSEDEINRLLGMVVDVENLFMSVHKEEDTDTKQVYFYLFKLLRKCILQMTRPVVEGSLGSPPFEKPNIEQGVLNFVQYKFSHLAPRERQTMFELSKMFLLCLNYWKLETPAQFRQRSQAEDVATYKVNYTRWLCYCHVPQSCDSLPRYETTHVFGRSLLRSIFTVTRRQLLEKFRVEKDKLVPEKRTLILTHFPKFLSMLEEEIYGANSPIWESGFTMPPSEGTQLVPRPASVSAAVVPSTPIFSPSMGGGSNSSLSLDSAGAEPMPGEKRTLPENLTLEDAKRLRVMGDIPMELVNEVMLTITDPAAMLGPETSLLSANAARDETARLEERRGIIEFHVIGNSLTPKANRRVLLWLVGLQNVFSHQLPRMPKEYIARLVFDPKHKTLALIKDGRVIGGICFRMFPTQGFTEIVFCAVTSNEQVKGYGTHLMNHLKEYHIKHNILYFLTYADEYAIGYFKKQGFSKDIKVPKSRYLGYIKDYEGATLMECELNPRIPYTELSHIIKKQKEIIKKLIERKQAQIRKVYPGLSCFKEGVRQIPVESVPGIRETGWKPLGKEKGKELKDPDQLYTTLKNLLAQIKSHPSAWPFMEPVKKSEAPDYYEVIRFPIDLKTMTERLRSRYYVTRKLFVADLQRVIANCREYNPPDSEYCRCASALEKFFYFKLKEGGLIDK
In the case of B5, the “Z score of condensed fraction” value was -0.5333.

B6: GDNF (protein, UniProt P39905 78-211, looked up)
Glial cell line-derived …: SPDKQMAVLPRRERNRQAAAANPENSRGKGRRGQRGKNRGCVLTAIHLNVTDLGLGYETKEELIFRYCSGSCDAAETTYDKILKNLSRNRRLVSDKVGQACCRPIAFDDDLSFLDDNLVYHILRKHSAKRCGCI
Consider B6, for which the “Z score of condensed fraction” value is given as -0.9627.

B7: GATAD1 (protein, UniProt Q8WUU5 1-269, looked up)
GATA zinc finger …: MPLGLKPTCSVCKTTSSSMWKKGAQGEILCHHCTGRGGAGSGGAGSGAAGGTGGSGGGGFGAATFASTSATPPQSNGGGGGKQSKQEIHRRSARLRNTKYKSAPAAEKKVSTKGKGRRHIFKLKNPIKAPESVSTIITAESIFYKGVYYQIGDVVSVIDEQDGKPYYAQIRGFIQDQYCEKSAALTWLIPTLSSPRDQFDPASYIIGPEEDLPRKMEYLEFVCHAPSEYFKSRSSPFPTVPTRPEKGYIWTHVGPTPAITIKESVANHL
For the molecule B7, the “Z score of condensed fraction” value is -0.9628.

B8: GPS2 (protein, UniProt Q13227 1-327, looked up)
G protein pathway suppressor 2: MPALLERPKLSNAMARALHRHIMMERERKRQEEEEVDKMMEQKMKEEQERRKKKEMEERMSLEETKEQILKLEEKLLALQEEKHQLFLQLKKVLHEEEKRRRKEQSDLTTLTSAAYQQSLTVHTGTHLLSMQGSPGGHNRPGTLMAADRAKQMFGPQVLTTRHYVGSAAAFAGTPEHGQFQGSPGGAYGTAQPPPHYGPTQPAYSPSQQLRAPSAFPAVQYLSQPQPQPYAVHGHFQPTQTGFLQPGGALSLQKQMEHANQQTGFSDSSSLRPMHPQALHPAPGLLASPQLPVQMQPAGKSGFAATSQPGPRLPFIQHSQNPRFYHK
On to B8, for which the “Z score of condensed fraction” value was -0.6135.

B9: GLI1 (protein, UniProt P08151 1-1106, looked up)
Zinc finger protein GLI1: MFNSMTPPPISSYGEPCCLRPLPSQGAPSVGTEGLSGPPFCHQANLMSGPHSYGPARETNSCTEGPLFSSPRSAVKLTKKRALSISPLSDASLDLQTVIRTSPSSLVAFINSRCTSPGGSYGHLSIGTMSPSLGFPAQMNHQKGPSPSFGVQPCGPHDSARGGMIPHPQSRGPFPTCQLKSELDMLVGKCREEPLEGDMSSPNSTGIQDPLLGMLDGREDLEREEKREPESVYETDCRWDGCSQEFDSQEQLVHHINSEHIHGERKEFVCHWGGCSRELRPFKAQYMLVVHMRRHTGEKPHKCTFEGCRKSYSRLENLKTHLRSHTGEKPYMCEHEGCSKAFSNASDRAKHQNRTHSNEKPYVCKLPGCTKRYTDPSSLRKHVKTVHGPDAHVTKRHRGDGPLPRAPSISTVEPKREREGGPIREESRLTVPEGAMKPQPSPGAQSSCSSDHSPAGSAANTDSGVEMTGNAGGSTEDLSSLDEGPCIAGTGLSTLRRLENLRLDQLHQLRPIGTRGLKLPSLSHTGTTVSRRVGPPVSLERRSSSSSSISSAYTVSRRSSLASPFPPGSPPENGASSLPGLMPAQHYLLRARYASARGGGTSPTAASSLDRIGGLPMPPWRSRAEYPGYNPNAGVTRRASDPAQAADRPAPARVQRFKSLGCVHTPPTVAGGGQNFDPYLPTSVYSPQPPSITENAAMDARGLQEEPEVGTSMVGSGLNPYMDFPPTDTLGYGGPEGAAAEPYGARGPGSLPLGPGPPTNYGPNPCPQQASYPDPTQETWGEFPSHSGLYPGPKALGGTYSQCPRLEHYGQVQVKPEQGCPVGSDSTGLAPCLNAHPSEGPPHPQPLFSHYPQPSPPQYLQSGPYTQPPPDYLPSEPRPCLDFDSPTHSTGQLKAQLVCNYVQSQQELLWEGGGREDAPAQEPSYQSPKFLGGSQVSPSRAKAPVNTYGPGFGPNLPNHKSGSYPTPSPCHENFVVGANRASHRAAAPPRLLPPLPTCYGPLKVGGTNPSCGHPEVGRLGGGPALYPPPEGQVCNPLDSLDLDNTQLDFVAILDEPQGLSPPPSHDQRGSSGHTPPPSGPPNMAVGNMSVLLRSLPGETEFLNSSA
For the molecule B9, the “Z score of condensed fraction” value was 1.126.

B10: GATA2 (protein, UniProt P23769 1-480, looked up)
Endothelial transcription …: MEVAPEQPRWMAHPAVLNAQHPDSHHPGLAHNYMEPAQLLPPDEVDVFFNHLDSQGNPYYANPAHARARVSYSPAHARLTGGQMCRPHLLHSPGLPWLDGGKAALSAAAAHHHNPWTVSPFSKTPLHPSAAGGPGGPLSVYPGAGGGSGGGSGSSVASLTPTAAHSGSHLFGFPPTPPKEVSPDPSTTGAASPASSSAGGSAARGEDKDGVKYQVSLTESMKMESGSPLRPGLATMGTQPATHHPIPTYPSYVPAAAHDYSSGLFHPGGFLGGPASSFTPKQRSKARSCSEGRECVNCGATATPLWRRDGTGHYLCNACGLYHKMNGQNRPLIKPKRRLSAARRAGTCCANCQTTTTTLWRRNANGDPVCNACGLYYKLHNVNRPLTMKKEGIQTRNRKMSNKSKKSKKGAECFEELSKCMQEKSSPFSAAALAGHMAPVGHLPPFSHSGHILPTPTPIHPSSSLSFGHPHPSSMVTAMG
For B10, the “Z score of condensed fraction” value is given as -0.7866.
